In the RNAGym collection of RNA variant scans (doi:10.1073/pnas.2313332121):

B1: TPR t1 (parent)
chain: GACCAAUCUGCCCUCAGAGCUCGAGAACAUCUUCGGAUGCAGAGGAGGCAGGCUUCGGUGGCGCGAUAGCGCCAACGUCCUCAACCUCCAAUGCAUCCCACCACAUGAUGAUGCCUGAAGAGCCUUGGUUUUUUG

Variants of: B1
Experiment: polymerase ribozyme fitness, log enrichment relative to wild type (log ratio); higher = more active; in vitro selection for triplet polymerase activity
In short: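 Fitness compares each genotype's enrichment to that of the wild type on a logarithmic scale, averaging replicates with inverse-variance weights. The logarithm is base 2. Enrichment came from Illumina sequencing of input and output libraries after one triplicate round of in vitro selection, which included frozen incubation at −7 °C, of PCR-built, transcribed mutant libraries of each subunit of a heterodimeric triplet polymerase ribozyme. Only genotypes with ≥10 input reads and ≥1 read per output were kept.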

| Variant | polymerase ribozyme fitness (log ratio) |
| --- | --- |
| U96A G113U | -3.61 |
| G110A A118G | -1.12 |
| G113U U133C | -2.64 |
| U106C A118U | -0.171 |
| C101A U126G G127C | -2.49 |
| A100C G110C | -4.94 |
| C114A G128U | -3.33 |
| C114A G128C | -3.78 |
| A105U U116C | -3.7 |
| A108U C123G | -3.08 |
| A108U C123A | -5.15 |
| C101A C102A | -5 |
| G107C G110A G117A U130C | -6.86 |
| C97U U125G | -1.25 |
| C97U U125A | -1.31 |
| C115G G128U | -5 |
| A105U G113A | -4.72 |
| U106A A111C | -1.96 |
| C97U A119U C123A | -1.43 |
| U116G G117C | -2.43 |
| C101A G107U U112G | -6.92 |

| Variant | polymerase ribozyme fitness (log ratio) |
| --- | --- |
| A105C C114A | -3.98 |
| C104U G113C C123A | -3.61 |
| C97U U129A | -2.18 |
| C99U A121G | -0.804 |
| G110C C115U | -4.71 |
| G113C G127C | -3.73 |
| C99A C123G | -4.92 |
| G93C A100C | -2.34 |
| C94G U109A | -6.28 |
| C101G C114A | -3.3 |
| U112A G135A | 2.15 |
| C98U U112A | -1.61 |
| G93C A121U | 1.21 |
| A103C C123A C124A | -3.52 |
| A103G U112G | -4.71 |
| U112C U129C | 0.894 |
| G93U U112A | 0.151 |
| G117A U125A | -3.14 |
| U112G G128C | -2.91 |
| A100U C101U C104A | -2.87 |
| G117A C123A | -0.382 |

| Variant | polymerase ribozyme fitness (log ratio) |
| --- | --- |
| A108U G120U | -5.29 |
| U106A C124A | 1.81 |
| C104A A108G U112A A118G G122U | -5.36 |
| G113U U126A | -4.71 |
| C115U C124G | 0.35 |
| A103C U132A | -4.12 |
| C101U U109G A111U | -4.63 |
| G93C A105U C114G A119G | -7.51 |
| C114U C123U | -1.92 |
| C97G A119G | -2.68 |
| G113C U133A | -2.13 |
| A111U G113C C115G | -7.15 |
| G113A U134G G135U | -1.24 |
| C94U G135U | -1.34 |
| U106A U129A | -1.17 |
| G93U C101A G113A C115G | -4.73 |
| U96A U125G | -1.93 |
| U96G G113U | -3.21 |
| A95C A108G G110U | -4 |
| C102U A121G | 0.0036 |
| C94A U129C | -0.753 |

| Variant | polymerase ribozyme fitness (log ratio) |
| --- | --- |
| C101U A121G U126A | 1.07 |
| A100C C104U | -0.176 |
| C114G C124A | -1.15 |
| A111C G122U C123U U130C | -0.737 |
| A95G C98U G113A A118G | -3.57 |
| C101G G127U | -2.83 |
| U106G A119G | 0.3 |
| U96G C98U | -3.02 |
| C102A C115G | -3.72 |
| G117A U133A | -1.2 |
| G117A U130A | -2.15 |
| G93U | -1.12 |
| G93C | -0.928 |
| C104A U112A | 0.162 |
| A105U C124U | -0.354 |
| A111U C123U G127C | -4.76 |
| U96A G128C | -3.28 |
| C99U U132C | -3.53 |
| A105U G135U | -2.99 |
| A105U G135C | -2.07 |
| C104U U106A | -0.522 |
